Data published in doi:10.1101/2020.10.12.335539.

Columns and labels:
[1] = biological target: HCMV-IgG hyperimmunoglobulin preparation (Cytotect) (human); experiment: flow cytometry on cells
[2] = biological target: humanized anti-hCD20 IgG1 (Rituximab) (human); experiment: flow cytometry on cells

| percent reduction of FcγRIII binding to immune complexes [2] | Substance | percent reduction of FcγRIII binding to opsonized infected cells [1] |
| --- | --- | --- |
|  | HCMV gp68 on the surface of HCMV AD169/pBAC2-infected MRC-5 cells (from UniProt P16739 24-345) (natural protein) | 60% |
| 60% | CD4-tailed gp68 (gp68-CD4) |  |
